We go through 13 proteins from patent publication US20250027068.

B1: PRT-545 (protein)
chain: MANQEIRYSEETPKTITSVWTKGVTPPTDFIKNEDVLHAPYIANQGWYDITKTFNGKDDLLCGAATAGNMLHWWFDQNKEEIERYLKKHPEKQKINFNGEQMFDVKEAIDTKDSQTDSALFEYFKDKAFPYLSTKHLGVFPDHVIDMFINGYRLSLTNHGPTPVKRGTKDPRGGIFDAVFTRGDQSKLLTSRHDFKEKTLKEISDLIKQELTEGKALGLSHTYANVRINHVINLWGADFDSEGNLEAIYVTDSDSNASIGMKKYYVGVNSAGKVAISAKEIEGDNIGAQVLGLFTLSTGQDIWEQTNLEHHHHHH
B2: PRT-596 (protein)
chain: MANQEIRYSEETPSTITSVWTKGVTPPTDFIQNEDVLHAPYIANQGWYDITKTFNGKDDLLCGAATAGNMLHWWFDQNKEQIENYLKKHPEKQKINFNGEQMFDVKEAIDTKDSQTDSALFEYFKDKAFPYLSTKHLGVFPDHVIDMFINGYRLSLTNHGPTPVKRGTKDPRGGIFDAVFTRGDQSKLLTSRHDFKEKTLNEISDLIKKELTEGKALGLSHTYANVRINHVINLWGADFNAEGNLEAIYVTDSDSNASIGMKKYYVGVNSAGKVAISAKEIEGDNIGAQVLGLFTLSTGQDIWNQTNLEHHHHHH
B3: PRT-587 (protein)
chain: MANQEIRYSEETPKTITSVWTKGVTPPTDFIYNEDVLHAPYIANQGWYDITKTFNGKDDLLCGAATAGNMLHWWFDQNKEQIERYLKKHPEKQKINFNGEQMFDVKEAIDTKDSQTDSKLFEYFKDKAFPYLSTKHLGVFPDHVIDMFINGYRLSLTNHGPTPVKRGTKDPRGGIFDAVFTRGDQSKLLTSRHDFKEKTLNEISDLIKQELTEGKALGLSHTYANVRINHVINLWGADFNSEGNLEAIYVTDSDSNASIGMKKYYVGVNSAGKVAISAKEIEGDNIGAQVLGLFTLSTGKDIWEQTNLEHHHHHH
B4: PRT-555 (protein)
chain: MANQEIRYSEETPKTITSVWTKGVTPPTDFIKNEDVLHAPYVANQGWYDITKTFNGKDDLLCGAATAGNMLHWWFDQNKEEIERYLKKHPEKQKINFNGEQMFDVKEAIDTKDSQTDSKLFEYFKDKAFPYLSTKHLGVFPDHVIDMFINGYRLSLTNHGPTPVKRGTKDPRGGIFDAVFTRGDQSKLLTSRHDFKEKTLNEISDLIKQELQEGKALGLSHTYANVRINHVINLWGADFDSEGNLEAIYVTDSDSNASIGMKKYYVGVNSAGKVAISAKEIEDDNIGAQVLGLFTLSTGKDIWEQTNLEHHHHHH
B5: PRT-571 (protein)
chain: MANQEIRYSEETPSTITSVWTKGVTPPTQFIQNEDVLHAPYIANQGWYDITKTFNGKDDLLCGAATAGNMLHWWFDQNKEQIENYLKKHPEKQKINFNGEQMFDVKEAIDTKDSQTDSALFEYFKDKAFPYLSTKHLGVFPDHVIDMFINGYRLSLTNHGPTPVKRGTKDPRGGIFDAVFTRGDQSKLLTSRHDFKEKTLNEISDLIKQELTEGKALGLSHTYANVRINHVINLWGADFNAEGNLEAIYVTDSDSNASIGMKKYYVGVNAAGKVAISAKEIEGDNIGAQVLGLFTLSTGQDIWNQTNLEHHHHHH
B6: PRT-554 (protein)
chain: MANQEIRYSEETPKTITSVWTKGVTPPTDFIKNEDVFHAPYVANQGWYDITKTFNGKDDLLCGAATAGNMLHWWFDQNKEEIENYLKKHPEKQKINFNGEQMFDVKEAIDTKDSQTDSALFNYFKDKAFPYLSTKHLGVFPDHVIDMFINGYRLSLTNHGPTPVKDGTKDPRGGIFDAVFTRGDQTKLLTARHDFKEKTLNEISDLIKQELTEGKALGLSHTYANVRINHVINLWGADFDSEGNLEAIYVTDSDSNASIGMKKYYVGVNAAGKVAISAKEIEDDNIGAQVLGLFTLSTGQDIWEQTNLEHHHHHH
B7: PRT-270 (protein)
chain: MVTSVWTKGVTPPTDFIYGEDVLHAPYKAGQGWYDITKLFNGKDDLLCGAATAGNMLHWWFDQNKEQIENYLKKHPEKQKINFNGEQMFDVKEAIDTKDSQLDSKLFEYFLEKAFPNLSTKHLGVFPDHVIDMFINGYRLSLLNHGPTPVKRGSKDPRGGIFDAVFTRGDQSKLLTNRHDLKNKTLKEISDLIKQELTEGKALGISHTYANGRINHVINLWGADFDAEGNLEAIAVTDSDSNASIGMKKYFVGVNSSGKVAISAKEIEEDNIGAQVLGLFTLSTGQDIWNQTN
B8: PRT-254 (protein)
chain: MVTSVWTKGVTPPTNFTYGEDVLHAPYVANQGWYDITKTFNGKDDLLCGAATAGNMLHWWFDQNKEQIENYLKKHPEKQKINFNGEQMFDVKEAIDTKDSQLDSKLFEYFLEKAFPNLSTKHLGVFPDHVIDMFINGYRLSLLNHGPTPVKRGSKDPRGGIFDAVFTRGDQSKLLTNRHDFKEKTLKEISDLIKQELTEGKALGISHTYANVRINHVINLWGADFDAEGNLEAIYVTDSDSNKSIGMKKYPVGVNSNGKVAISAKEIEEDNIGAQVLGLFTLSTGQDIWNQTN
B9: PRT-262 (protein)
chain: MVTSVWTKGVTPPTNFTYGEDVLHAPYVANQGWYDITKTFNGKDNLLCGAATAGNMLHWWFDQNKEQIENYLKKHPEKQKINFNGEQLFDVKEAIDTKDSQLDSKLFEYFLEKAFPNLSTKHLGVFPDHVIDMFINGYRLSLLNHGPTPVKRGSKDKRGGIFDAVFTRGVQSKLLTNRHDFKEKTLKEISDLIKQELTEGKALGISHTYANVRINHVINLWGADFDAEGNLEAIAVTDSDTNASIGMKKYFVGVNSSGKVAISAKEIEEDNIGAQVLGLFTLSTGQDIWNQTN
B10: PRT-246 (protein)
chain: MVTSVWTKGVTPPANFTQGEDVFHAPYVANQGWYDITKLFNGKDDLLCGAATAGNMLHWWFDQNKDQIKRYLEEHPEKQKINFNGEQMFDVKEAIDTKNHQLDSKLFDYFKEKAFPYLSTKHLGVFPDHVIDMFINGYRLSLTNHGPTPVKEGSKDPRGGIFDAVFTRGDQSKLLTSRHDFKEKNLKEISDLIKKELTEGKALGLSHTYANVRINHVINLWGADFDSNGNLKAIYVTDSDSNPSIGMKKYFVGVNSSGKVAISAKEIKEDNIGAQVLGLFTLSTGQDSWNQTN
B11: PRT-534 (protein)
chain: MANQEIRYSSDSEWANKKVWVYGITPPEEGAWKYSTYYLPWKKEYGWYDCNKRNPTADGMMCWAATASNLLHWWIAQNKEYIDLYGDKYKGPDKINFNGEQMFDVKEYIDPLDKPQESDIFQCFIDKSFADLSTKHEAGYGDAGINWFIHGIIPSSPAHGPTPVKLDYPYNPAGYFKDVFPRGDGVVLLGNNGDFKELSKERFNETIKDALKNKKAIGLSIGPVNVRSSHVVTIWGAEFDENGDVSYIYMADNNDNWGVGCIRYQIVYEEGGTYTCYKTEIIPSDRPIPINRLVTLELGEEYWKQTNLEHHHHHH
B12: PRT-583 (protein)
chain: MANQEIRYSKAKPKVITSVWTKGVTPPTQFTKNEDVFHAPYLANQGWYDITKTFNGKDDLLCGAATAGNMLHWWFDQNKEQIERYLKKHPEKQKINFNGEQMFDVKEAIDTKDSQTNSKLFNYFKEKAFPYLSTKHLGVFPDHVIDMFINGYRLSLTNHGPTPVKEQNKDPRGGIFDDVFTRGDQSKLLTSRHDFKEKTLKEISDLIKQELKEGKALGLSHTYANVRINHVINLWGADFDAEGNLIAIYVTDSDSNASIGMKKYYVGVNSAGKVAISAKEIEDDNIGAQVLGLFTLSTGKDIWEKTNLEHHHHHH
B13: PRT-544 (protein)
chain: MANQEIRYSKNENPNVTIKWVHGIGEPTQAEKEKIEFWWYETTTTKFFNNRKVDHLGDGNQCWAKTDSNMLHWWFVQNEENINQYIAKKNITGKINFNGEQMFDVKEGIDDNQEKEKSYIANTFRTKKAHNLSTKHKGDYIINGLSWYLYGLNNFKIAHGPTPVKKKPKFYGPALFKDVFNRGDGNTPIIVETDFKEYTKKEFEDTLSAALDSKKAIGINIYGSNVDYQHAITLWGAAFDEEENIIAIYVVDNNFKFENRIFPYGIWYQKEGRPYLFNYEINSFVKNRYVGEVITLDKGEAQWQETNLEHHHHHH

The series deals with pooled human IgG (human IgG1, 2, 3 and 4).
Protein B1 returned an Enzyme Activity Endpoint Assay: Fab′2 of 690 ng/µL, an Enzyme Activity Endpoint Assay: Fc of 435 ng/µL, an Enzyme Activity Endpoint Assay: IgG of 0 ng/µL and an Enzyme Activity Endpoint Assay: scIgG of 0 ng/µL.
Take B2: the Enzyme Activity Endpoint Assay: Fab′2 worked out at 753 ng/µL, the Enzyme Activity Endpoint Assay: Fc was 348 ng/µL, the Enzyme Activity Endpoint Assay: IgG stood at 0 ng/µL and the Enzyme Activity Endpoint Assay: scIgG is 263 ng/µL.
B3 came in with an Enzyme Activity Endpoint Assay: Fab′2 of 347 ng/µL, an Enzyme Activity Endpoint Assay: Fc of 156 ng/µL, an Enzyme Activity Endpoint Assay: IgG of 0 ng/µL and an Enzyme Activity Endpoint Assay: scIgG of 120 ng/µL.
Turning to B4, the Enzyme Activity Endpoint Assay: Fab′2 was found to be 670 ng/µL, the Enzyme Activity Endpoint Assay: Fc came to 475 ng/µL, the Enzyme Activity Endpoint Assay: IgG was 0 ng/µL and the Enzyme Activity Endpoint Assay: scIgG amounted to 0 ng/µL.
As for B5, the Enzyme Activity Endpoint Assay: Fab′2 was 786 ng/µL, the Enzyme Activity Endpoint Assay: Fc was 383 ng/µL, the Enzyme Activity Endpoint Assay: IgG came out at 0 ng/µL and the Enzyme Activity Endpoint Assay: scIgG worked out at 295 ng/µL.
As for B6, the Enzyme Activity Endpoint Assay: Fab′2 stood at 580 ng/µL, the Enzyme Activity Endpoint Assay: Fc worked out at 350 ng/µL, the Enzyme Activity Endpoint Assay: IgG is 36 ng/µL and the Enzyme Activity Endpoint Assay: scIgG worked out at 0 ng/µL.
In the case of B7, the Enzyme Activity Endpoint Assay: Fab′2 worked out at 376 ng/µL, the Enzyme Activity Endpoint Assay: Fc amounted to 288 ng/µL, the Enzyme Activity Endpoint Assay: IgG came to 100 ng/µL and the Enzyme Activity Endpoint Assay: scIgG is 311 ng/µL.
In the same order, the values of B8 are 677 ng/µL, 359 ng/µL, 0 ng/µL and 0 ng/µL.
Turning to B9, the Enzyme Activity Endpoint Assay: Fab′2 is 50 ng/µL, the Enzyme Activity Endpoint Assay: Fc amounted to 191 ng/µL, the Enzyme Activity Endpoint Assay: IgG was determined as 289 ng/µL and the Enzyme Activity Endpoint Assay: scIgG stood at 802 ng/µL.
In turn, B10 gave an Enzyme Activity Endpoint Assay: Fab′2 of 666 ng/µL, an Enzyme Activity Endpoint Assay: Fc of 348 ng/µL, an Enzyme Activity Endpoint Assay: IgG of 0 ng/µL and an Enzyme Activity Endpoint Assay: scIgG of 221 ng/µL.
The matching figures for B11: 0 ng/µL, 0 ng/µL, 1380 ng/µL and 0 ng/µL.
In turn, B12 came in with an Enzyme Activity Endpoint Assay: Fab′2 of 748 ng/µL, an Enzyme Activity Endpoint Assay: Fc of 396 ng/µL, an Enzyme Activity Endpoint Assay: IgG of 0 ng/µL and an Enzyme Activity Endpoint Assay: scIgG of 261 ng/µL.
B13 displayed an Enzyme Activity Endpoint Assay: Fab′2 of 12 ng/µL, an Enzyme Activity Endpoint Assay: Fc of 170 ng/µL, an Enzyme Activity Endpoint Assay: IgG of 314 ng/µL and an Enzyme Activity Endpoint Assay: scIgG of 748 ng/µL.
